From article PMC6826516 (2019)

B1: SmBiT-TAZ-Flag (TAZ aa 13-119), wild type [not stated] / LgBiT-TEAD1-Myc (TEAD1 aa 194-411), wild type [not stated] (parent complex)
chain 1: PGQQVIHVTQDLDTDLEALFNSVMNPKPSSWRKKILPESFFKEPDSGSHSRQSSTDSSGGHPGPRLAGGAQHVRSHSSPASLQLGTGAGAAGSPAQQHAHLRQQSYD
chain 2: RSIGTTKLRLVEFSAFLEQQRDPDSYNKHLFVHIGHANHSYSDPLLESVDIRQIYDKFPEKKGGLKELFGKGPQNAFFLVKFWADLNCNIQDDAGAFYGVTSQYESSENMTVTCSTKVCSFGKQVVEKVETEYARFENGRFVYRINRSPMCEYMINFIHKLKHLPEKYMMNSVLENFTILLVVTNRDTQETLLCMACVFEVSNSEHGAQHHIYRLVKD

Variants of: B1
Assay: NanoBiT assay (split-luciferase biosensor) in lysates of transfected HEK293T cells; 48 h after transfection; equal amounts of each biosensor plasmid; read off a plot

Row | response | Variant
1 | ~430 fold over LgBiT-TEAD1 alone | chain 1 W31A, chain 1 K34A, chain 1 L36A, chain 1 S39A, chain 1 F40A, chain 1 F41A
